Laboratory results: PMC4274154, “DEAF1 Binds Unmethylated and Variably Spaced CpG Dinucleotide Motifs”

target: T1, DEAF1-FLAG (UniProt O75398 1-565); assay: EMSA; EMSA: 200 ng DEAF1-FLAG, 30 min at room temperature, 1x EMSA binding buffer (composition and pH not given), 1 ug dA:dT, 5% native polyacrylamide gel; conditions: protein: recombinant; tags: FLAG; chain copies: 2; label: 32P
T1 sequence: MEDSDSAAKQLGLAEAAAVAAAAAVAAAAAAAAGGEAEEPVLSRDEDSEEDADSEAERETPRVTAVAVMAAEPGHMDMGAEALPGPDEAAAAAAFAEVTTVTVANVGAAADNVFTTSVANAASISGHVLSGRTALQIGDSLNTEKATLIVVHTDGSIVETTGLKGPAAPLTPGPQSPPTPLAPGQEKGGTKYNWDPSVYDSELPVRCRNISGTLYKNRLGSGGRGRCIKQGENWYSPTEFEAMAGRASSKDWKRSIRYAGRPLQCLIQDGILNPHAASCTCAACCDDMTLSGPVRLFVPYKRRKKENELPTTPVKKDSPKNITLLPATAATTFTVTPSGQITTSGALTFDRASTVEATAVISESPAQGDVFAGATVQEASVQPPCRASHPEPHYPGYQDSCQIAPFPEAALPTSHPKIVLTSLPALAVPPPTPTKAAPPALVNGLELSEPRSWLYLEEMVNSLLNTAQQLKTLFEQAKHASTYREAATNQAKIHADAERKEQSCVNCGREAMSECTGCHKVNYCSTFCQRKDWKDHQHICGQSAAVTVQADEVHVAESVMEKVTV

Binder | binding result
11-space probe (dsDNA) DNA 1: TTGAGTTCGGGAAAAAACTTCGGGCTCAA DNA 2: TTGAGCCCGAAGTTTTTTCCCGAACTCAA | binds
6-space methylated probe (dsDNA, 5-methylcytosine on both strands at the CpG of the second half-site) DNA 1: TTGAGTTCGGGTGTTCGGGCTCAA DNA 2: TTGAGCCCGAACACCCGAACTCAA | no binding
6-space probe (two TTCGGG motifs) (dsDNA) DNA 1: TTGAGTTCGGGTGTTCGGGCTCAA DNA 2: TTGAGCCCGAACACCCGAACTCAA | binds
EIF4G3 promoter probe (dsDNA) DNA 1: ACTTCGGACTTTTTCGGAAT DNA 2: ATTCCGAAAAAGTCCGAAGT | binds
6mut (TTCGGG to AACGCC in both half-sites) (dsDNA) DNA 1: TTGAGAACGCCTGAACGCCCTCAA DNA 2: TTGAGGGCGTTCAGGCGTTCTCAA | no binding
9-space probe (dsDNA) DNA 1: TTGAGTTCGGGAAAACTTCGGGCTCAA DNA 2: TTGAGCCCGAAGTTTTCCCGAACTCAA | binds
8mut (TTCGGG to AACGCC in both half-sites) (dsDNA) DNA 1: TTGAGAACGCCAAACAACGCCCTCAA DNA 2: TTGAGGGCGTTGTTTGGCGTTCTCAA | no binding
10-space probe (dsDNA) DNA 1: TTGAGTTCGGGAAAAACTTCGGGCTCAA DNA 2: TTGAGCCCGAAGTTTTTCCCGAACTCAA | binds
8-space probe (two TTCGGG motifs) (dsDNA) DNA 1: TTGAGTTCGGGAAACTTCGGGCTCAA DNA 2: TTGAGCCCGAAGTTTCCCGAACTCAA | binds
